{"source": "paper PMC4264193", "about": "“Structures of the Inducer-Binding Domain of Pentachlorophenol-Degrading Gene Regulator PcpR from Sphingobium chlorophenolicum” (International Journal of Molecular Sciences, 2014)", "proteins": {"B1": {"name": "PcpR inducer-binding domain (residues from 85 to the C-terminus of PcpR) (domain or fragment, Sphingobium chlorophenolicum L-1, UniProt P52679 85-307, looked up)", "chain": "RSELRFDPGTSNRNFRIAASDFGQALMLPRLYATLEETAPQVRVTGVNLRHGPLVEELESGSIDIAFGGFPTLSAGIKTQTLFREEYVCVMRQSHPALTHGLDLEAFRQCRHIIVTAHEFNHVHEQVEARLLELLPPESIRFTTENFLVSAVIAEETDVILTIPSRLARWFANRGGLTIFPVPIELPSIEVKQYWHERYDKDPGNIWLRRVIAKIGFQNPPAE", "notes": "PcpR, LysR-type transcription factor of Sphingobium chlorophenolicum L-1; Cloned into pET30-LIC and expressed as a C-terminal HIS6X fusion protein; also called PcpR IBD; source: E. coli BL21(DE3), purified (nickel-nitrilotriacetate column, Mono Q anion exchange)"}}, "target": "the molecule itself", "experiment": "SEC-MALS; 200 ug of PcpR loaded on a BioSep-SEC-S 2000 column, eluted isocratically at 0.5 mL/min; UV, refractometer and Dawn EOS light scattering detectors; Zimm fit; calculated mass ~50 kD", "data": [{"protein": "B1", "values": [{"measurement": "stoichiometry N", "result": 2}]}]}
